Tested on: HEK293 cells
Type: cell-based, human
Details: luminescence from secreted Gluc in supernatant 24 hours after transfection of HEK293 cells; circular RNA encoding Gluc with the named IRES (UTR truncated to 675 nt)

| Molecule | Expression |
| --- | --- |
| Aichivirus KVGH (nucleic acid, listed as Aichivirus sp.) DNA: TACTCCATTCAGCTTCTTCGGAACCTGTTCGGAGGAATTAAACGGGCACCCATACTCCCCCCCACCCCCCTTTTGTAACTAAGTATGTGTGCTCGTGACCTTGACTCCCACGGAACGGACCGATCCGTTGGTGAACAAACAGCTAGGTCCACATCCTCCTTTCCCCTGGGAGGGTCCCCGCCCTCCCACATCCCCCCCCCAGCCTGACGTGTCACAGGCTGTGTGAAGCCCCCGCGAAAGCTGCTCACGTGGCAATTGTGGGTCCCCCCTTCATCAAGACACCAGGTCTTTCCTCCTTAAGGCTAGCCCCGGCGTGTGAACTCACGTTGGGCAACTAGTGGTGTCACTGTGCGCTCCCAATCTCGGCCGCGGAGTGCTGTTCCCCAAGCCAAACCCCTGGCCCTTCACTATGTGCCTGGCAAGCACACCTGAGAAGGTGTTCCGCTGTGGCTGCCAGCCTGGTAACAGGTGCCCCAGTGTGCGTAACCTTCTTCCGTCTTCGGACGGTGGTGATTGGTTAAGATTTGGTGTAAGGTTCATGTGCCAACGCCCTGTGCGGGATGAAACCTCTACTGCCCTAGGAATGCCAGGCAGGTACCCCACCTTCGGGTGGGATCTGAGCCTGGGCTAATTGTCTACGGGTGGTTTCATTTCCAATTCTTTCATGTCGGAGTC | 1.72E+07 |
| Human enterovirus C105 (nucleic acid, listed as Enterovirus sp.) DNA: CCCCTAGGATCCACTGGATGTCAGTACACTGGTATCGTGGTACCTTTGTACGCCTGTTTTATACCCCCTTCCCCGCAACTTTAGAAGCATCAAAAGCACCGCTCAATAGTCACCACACCCCCAGTGTGGTTTCGAGCAAGCACTTCTGTTTTCCCGGTTGCGTCCCATATGCTGTGCAAACGGCAAAAAGGGACAATATCGTTACCCGCTTGTATACTACGGGAAACCTAGTACCACCATTGATTGTGTTGAGAGTTGCGCTCATCACCTTTCCCCGGTGTAGCTCAGGCCGATGAGGCTCAGAATCCCCCACAGGTGACTGTGTCTGAGCCTGCGTTGGCGGCCTGCCCTCGCCTTATGGCGTGGGACGCTTGATACATGACATGGTGCGAAGAGTCTACTGTGCTATGCAAGAGTCCTCCGGCCCCTGAATGTGGCTAATCCTAACCACTGATCCCACGCACGCAAACCAGTGTGTAGTGGGTCGTAACGCGCAAGTCGGTGGCGGAACCAACTACTTTGGGTGACCGTGTTTCCTTTATTACTTATTGAATGTTTATGGTGACAATTGTTTGATTCAGTTGTTGCCATTCTCTACATTCATTTACCCAGCATCAAACCAATTGAACTGTTACA | 5.49E+05 |
| Human enterovirus 109 (nucleic acid, listed as Enterovirus sp.) DNA: TTTAAAACAGCCTGGGGGTTGTTCCCACCCCCAGGGCCCACTGGGCGTTAGTACTCTGGTATCGCGGTACCTTAGTATGCCTGTTTTATGTCTCCTTTCCCCCGCAACTTTAGAAGTAATCAAGTTATGGCTCAACAGTCGCCACACCCCCAGTGTGGTTCCGAGCAAGCACTTCTGTTCCCCGGTTGCGTCTTATATGCTGTGTGAACGGCAGAAAGGGACAATATCGTTATCCGCTCAACTACTACGGGAAGCCTAGTACCACCATGGATTGACCTGAAAGTTGCGTTCAGCGCACCCCCAGCGCAGCTCAGGCCGATGAGGCTCCGAATACCCCACGGGCGACCGTGTCGGAGCCTGCGTTGGCGGCCTGCCCACGTTGCAAAACGTGGGACGCTCATTTCATGACATGGTGCGAAGAGCCTACTGTGCTAGTTGAGAGTCCTCCGGCCCCTGAATGTGGATAATCCTAACCACTGAACCTACGGGCGCAAACCAGCGTCTGGTAGGCCGTAACGCGCAAGTCGGTGGCGGAACCAACTACTTTGGGTGTCCGTGTTTCCTTTTATCTTTTTGAATGTTTATGGTGACAATTGTTGTGTACAGTTGTTACCATAGTTTGCATTCAGAAATAAACCTAACACTTTCCAATTATTTGTTACA | 4.92E+05 |
| Bovine picornavirus (nucleic acid) DNA: TTTTCTCCCCTCCCCCTCCAACTACCTTTTCCCCCTCTTGTAACGCTAGAAGTTTGTGCAAACCGCCTGTAGGGTACTGCAATCCAGCAGTGCATAGGCTAAGCTTTTCTTGTTACCCCACCCCACATTATACTGAGGAGGATTGTGAAATTGTGTTAGTATGGGTTAGTAGCGGTGACCCGGGTAACCCCAACCCAGAAACTCACGGATGAGATGAACAGGACCCCACATGGTAACGTGTGTGTTCGTCTGCCCCGCAAGGTGAGGCCGTGAGAGCTTTGCACGCGAAAACCTTGAAAACCCAAAAGTACCTTGAGCTCTTCGCTATTTTGTGTTTCCTCCAGGACCCTGAATGCGGCTAAACCTAACCCGCGATCCGCACGTAGCAACCCAGCTAGAGTGTGGTCGTAATGCGCAAGTTGCGGGCGGTACCGACTACTTTGGTGTTCCTGTGTTTCCTTTATTTTATTTTGAATTTTTATGGTGACAACAGCTAGAAAATAAGAGTGAAC | 3.82E+06 |
| Aichivirus DV (nucleic acid, listed as Aichivirus sp.) DNA: TACTCCATTCAGCTTCTTCGGAACCTGTTCGGAGGAATTAAACGGGCACCCATACACCCCCACCCCCTTTTCTGCAACTTAAGTATGTGTGCTCGTAATCTTGACTCCCACGGAACGGATCGATCCGCTGGAGAACAAACTGCTAGATCCACATCCTCCCTTCCCCTGGGAGGACCCCGGTCCTCCCACATCCTCCCCCCAGCCTGACGTAACACAGGCTGTGTGAAGTCCCCGCGAAAGCTGCTCACGTGGCAATTGTGGGTCCCCCCTTCACCAAGACACCAGGTCTTTCCTCCTTAAGGCTAGCCCCGATGTGTGAATTCACATTGGGCAACTAGTGGTGTCACTGTGCGCTCCCAATCTCGGCCGCGGAGTGCTGTTCCCCAAGCCAAACCCCTGGCCCTTCACTATGTGCCTGGCAAGCATATCTGAGAAGGTGTTCCGCTGTGGCTGCCAGCCTGGTAACAGGTGCCCCAGTGTGCGTAACCTTCTTCCGTCTCCGGACGGTAGTGATTGGTTAAGATTTGGTGTAAGGTTCATGTGCCAACGCCCTGTGCGGGATGAAACCTCTACTGCCCTAGGAATGCCAGGCAGGTACCCCACCTTCGGGTGGGATCTGAGCCTGGGCTAATTGTCTACGGGTAGTTTCATTTCCAATTCTTTTATGTCGGAGTC | 7.79E+07 |
| Murine Kobuvirus 1 (nucleic acid, listed as Kobuvirus sp.) DNA: GTAACTTCAAGTGTGTGTGCTCGTAATCTTGACTCCTGCCGGAATGCCGCCCGGTTCAGTGAACAAACAGCTAGGCAAGTCCCTCCCTTCCCCTGTGGTCGGTTCTCACCGGCCACCATCCCTCCCCCAGCCTGACGTGTTACAGGCTGTGCAAAGCCCCCGCGAAAGCTGCTCACGTGGCAATTGTGGGTCCCCCCTTTGTCAAGACACCGAGTCTTTCTCCCTTAAGGCTAGCCCGGTCCCACGAACGTGGAACTGGCAACTAGTGGTGTCACTACACGCCTCCGACCTCGGACGCGGAGTGCTGTTCCCCAAGCTGTAACCCTGACCCAAGACTGTGCTGCCTGGCAAGCACCGTCTGGGAAGATGTTCCGCTGTGGCTGCCAAACCTGGTAACAGGTGCCCCAGTGTGTGTAGTCTTCCTCCAGTCTCCGGACTGGCAGTCTTGTGTAAAGATGCAGTGTAAGGTTCAAGTGCCAAATCCCTGGAAGGAGTGACCCTCTACTGCCCTAGGAATGCTGTGCAGGTACCCCCAACTTCGGTTGGGGATCTGAGCACAGGCTAATTGTCTACGGGTAGTTTCATTTCCCATCCTCTCTTTTTTGGCATC | 1.60E+07 |
| Porcine Kobuvirus XX (nucleic acid, listed as Kobuvirus sp.) DNA: CCACCGTTACTTCACTCCACTCCCTCGGGACTGGTTTGGAGGAGCATAACAGGGCTTCCCATCCCTGTTCACCCTCAATACCACCCACCCTTTCCCTCAACCATCCCTATCCACACCCCACTGACTGATTCCCTTGGATTTTGACCTCAGAACGCCTACTTGACCTCCCACTTGCCTTTCCCTTCTCGGATTGCCGGTGGTGCCTGGCGGAAAAAGCACAAGTGTGTTGCAGGCTACCAAACTCCTACCCGACAAAGGTACGTGTCCGCGTGCTGAGTAATGGGATAGGAGATGCCTACAACAGGCTCGCCCATGAGTAGAGCATGGACTGCGGTGCATGTGACTTCGGTCACCACGGGCATAGCATTGCTCACCCGTGAATCAAGTCATTGAGATTCCTCTGACCTCTGAAGTGCACTGTGGTTGCGTGGCTGGGAATCCACGCTTGACCATGTACTGCTTGATAGAGTCGCGGCTGGCCGACTCATGGGTTAAAGTCAGTTGATAAGACAC | 1.32E+07 |
| Caprine Kobuvirus 12Q108 (nucleic acid, listed as Kobuvirus sp.) DNA: GGGGGTGGGGGGGGCCTCGGCCCCCTCACCCTCTTTTCCGGTGGCCACGCCCGGGCCACCGATACTTCCCTTCACTCCTTCGGGACTGTTGGGGAGGAACACAACAGGGCTCCCCTGTTTTCCCATTCCTTCCCCCTTTTCCCAACCCCAACCGCCGTATCTGGTGGCGGCAAGACACACGGGTCTTTCCCTCTAAAGCACAATTGTGTGTGTGTCCCAGGTCCTCCTGCGTACGGTGCGGGAGTGCTCCCACCCAACTGTTGTAAGCCTGTCCAACGCGTCGTCCTGGCAAGACTATGACGTCGCATGTTCCGCTGCGGATGCCGACCGGGTAACCGGTTCCCCAGTGTGTGTAGTGCGATCTTCCAGGTCCTCCTGGTTGGCGTTGTCCAGAAACTGCTTCAGGTAAGTGGGGTGTGCCCAATCCCTACAAAGGTTGATTCTTTCACCACCTTAGGAATGCTCCGGAGGTACCCCAGCAACAGCTGGGATCTGACCGGAGGCTAATTGTCTACGGGTGGTGTTTCCTTTTTCTTTTCACACAACTCTACTGCTGACAACTCACTGACTATCCACTTGCTCTCTTGTGCCTTTCTGCTCTGGTTCAAGTTCCTTGATTGTTTTTGACTGCTTTTCACTGCTTTTCTTCTCACAATCCTTGCTCAGTTCAAAGTC | 2.87E+08 |
| Rabbit Kobuvirus (nucleic acid, listed as Kobuvirus sp.) DNA: GGGCTATAAATATGGGCATTCCTCTTCCCCCTTCCCCTTTTGAAGATGAGTGCGCATATTCTTGACTCCGCCTGGATTGGCCGCCCAAGGCGTGAACAAGCAGCTAGGCCACCATGACACTGCGGTGGTGTCCGAACCCGCGGGTGCCTTCACGGGCACCTGTGGTATGTAGGACTCCCACCGTGGTCTTCCCTTTCCCCCTCAATCTTTCCCCCTGGTTCGACTAACGGGACCAGTGCTGGAACCTGTCCGGTGAACGGTATAGCAGGCCCCCCCGGCAGAAACACCCGGTGCTTACCCCTTAAGGCTAGCCCCCTTCCATGAATTTGGTTGGGGCAACTAGTGGGTGTACAGTTGGCGTGAACCCTCCGGTCTAGGAGTGCTCTTGCCCAATCCTCTGTGTGTGCCTTGCAGTAGGGACTGGCAATCCTTCGCGTAGGTGATCCGCTGTGCCATGCCATCCTGGCGACAGGAGGCCCAGTGTGCGCAACCTACGTCCCTTCTGGGTGCTGCATTGCATTACCTTTGGAGTAAGCTTGGTGTGCCGAAACCCCAGGGTTTACGTACCACTCGTGGTGTGAGGAATGTGCCGCAGGTACCCCATCCTTGAGGTGGGATCTGAGCGGTAGCTAATTGTCTAGCACCACTTTCTTCCTTTTTTCTTTGCTGGTCACG | 3.73E+07 |

From patent US20230226096A1 (Orna Therapeutics, Inc., priority 2020, published 2023)
